The nature of the series: label from the status in PepcDB records.

Turning to “MSQFWYSEETASRLAEELLQQAGEHGRIACLSAPSVYQKLKQLESVRSDGVSAVLLEFDRRFAAYGDEFVFYDYNNPLCLPEDLLPQSFDIVIADPPYLSEECLSKVTLTVKHLTKGKILLCTGAIMEEHAGKLLDLKMCSFLPRHNHNLANEFRCYVNYESRLLS”, the protein production result is “failed”.

Take “MSQIEAVFFDCDGTLVDSEVICSRAYVTMFRQFDITLELTEVFRRFKGVKLYEIIDTISKEHGVALAKAELEPVYRAEVARLFDTELEAIAGANTLLESIKTPMCVVSNGPVSKMQHSLGKLGMLHHFPDLLFSGYDIQRWKPDPALMLHAANAMKVNVEKCILVDDSSAGAQSGIAAGMEVFYFCADPHNKPIDHPNVTTFTDLAQLPGLWKAR”: the protein production result is listed as “failed”.

With “MSQLEIRDLWASIDGETILKGVNLVVPKGEVHALMGPNGAGKSTLGKILAGDPEYTVERGEILLDGENILELSPDERARKGLFLAFQYPVEVPGVTIANFLRLALQAKLGREVGVAEFWTKVKKALELLDWDESYLSRYLNEGFSGGEKKRNEILQLLVLEPTYAVLDETDSGLDIDALKVVARGVNAMRGPNFGALVITHYQRILNYIQPDKVHVMMDGRVVATGGPELALELEAKGYEWLKEKVKEGA”, the protein production entry is “not failed”.

Consider “MSQLLKLKSQYDDECTVTRHYEGKGRNAGRLGAVGCKNRHGEFRIGSGFKDKDRDNPPKIGTLITYRYRGFTRKGTPKFATFVRVRTLEHHHHHH”, for which the protein production result was “failed”.

For the sequence “MSQLNSVWVFSDNPERYAELFGGAQQWGQQVYAIVQNTEQAQAVMPYGPKCIYVLEQNDALQRTENYAESIAALLKDKHPAMLLLAATKRGKALAARLSVQLNAALVNDATAVDIVDGHICAEHRMYGGLAFAQEKINSPLAIITLAPGVQEPCTRDISHQCPTETVPYVAPRHEILCRERRAKAASSVDLSKAKRVVGVGRGLAAQDDLKMVHELAAVLNAEVGCSRPIAEGENWMERERYIGVSGVLLKSDLYLTLGISGQIQHMVGGNGAKVIVAINKDKNAPIFNYADYGLVGDIYKVVPALISQLNR”, the protein production entry is “failed”.

On to “MSQPPLLSGPGGRLLGAALLIGLLAGCGSVSTGNAGSGTVGTSTTSRADVMTFQPSSLPVSYVGETYNVQVGVTGGVGPYGYRLTAGTLPPGLKFAGGALSGTPTKAGSYSFAIQATDANLSTRVQEYTMNVDALPPLALKPTLPPGEIRGETRIPVTIQAPRAVRAARLSWDLGKDVQVTRVQPADAGSVVFWQQRGSVLTVDLGFRTVPRPDARIALITVKPAKAVTLKADALGYEARDGSGKMLVDKKRPGSEPVKPAEQPGDPKVDPKAADQKATDQKATDPKTVDPKTVTPADTVEGGPLPSPALPTPSLPPTLPPVTTPPANTPPVPTPTPPANQPAPAPAPQPAPAPQPTPPSGTGGALEHHHHHH”, for which the protein production entry is “not failed”.

As for “MSQQSSSPTKEDNNSSSPVVPNPDSVPPQLSSPALFYSSSSSQGDIYGRNNSQNLSQGEGNIRAAIGSSPLNFPSSSQRQNSDVFQSQGRQGRIRSSASASGRSRYHSDLRSDRALPTSSSSLGRNGQNRVHMRRNDIHTSDLSSPRRIVDFDTRSGVNTLDTSSSSAPPSEASEPLRIIWGTNVSIQECTTNFRNFLMSFKYKFRKILDEREEFINNTTDEELYYIKQLNEMRELGTSNLNLDARNLLAYKQTEDLYHQLLNYPQEVISIMDQTIKDCMVSLIVDNNLDYDLDEIETKFYKVRPYNVGSCKGMRELNPNDIDKLINLKGLVLRSTPVIPDMKVAFFKCNVCDHTMAVEIDRGVIQEPARCERIDCNEPNSMSLIHNRCSFADKQVIKLQETPDFVPDGQTPHSISLCVYDELVDSCRAGDRIEVTGTFRSIPIRANSRQRVLKSLYKTYVDVVHVKKVSDKRLDVDTSTIEQELMQNKVDHNEVEEVRQITDQDLAKIREVAAREDLYSLLARSIAPSIYELEDVKKGILLQLFGGTNKTFTKGGRYRGDINILLCGDPSTSKSQILQYVHKITPRGVYTSGKGSSAVGLTAYITRDVDTKQLVLESGALVLSDGGVCCIDEFDKMSDSTRSVLHEVMEQQTISIAKAGIITTLNARSSILASANPIGSRYNPNLPVTENIDLPPPLLSRFDLVYLVLDKVDEKNDRELAKHLTNLYLEDKPEHISQDDVLPVEFLTMYISYAKEHIHPIITEAAKTELVRAYVGMRKMGDDSRSDEKRITATTRQLESMIRLAEAHAKMKLKNVVELEDVQEAVRLIRSAIKDYATDPKTGKIDMNLVQTGKSVIQRKLQEDLSREIMNVLKDQASDSMSFNELIKQINEHSQDRVESSDIQEALSRLQQEDKVIVLGEGVRRSVRLNNRV”, the protein production result is listed as “failed”.

For the sequence “MSQSKEDKIRSILEAKNIKSNFQNKENLSEFNEKKASKRAEDLLDVYYNTLSTADMEFPYWYNREYRKSDGDIPVVRRAKALKAAFSHMTPNIIPGEKIVMQKTRHYRGSFPMPWVSESFFVAQGEQMREEAKKLASNTADELTKFGSGGGNVTESFGNVVSIAGKFGMRKEEVPVLVKMAKEWVGKSVEDLGFHYEKMMPDYDLKENLMSTLICMFDSGYTLPQGREVINYFYPLNYGLDGIIEMAKECKKAVAGNASGDGLIGMDRLYFYEAVIQVIEGLQTWILNYAKHAKYLESIETDLEAKKEYSDLVEILEHIAHKQPRTFREALQLTYTIHIASVNEDAISGMSIGRFGQILYPWYEQDIEKGLITKEEVIELLELYRIKITCIDCFASAGVNGGVLSGNTFNTLSIGGLKEDGSTGANELEELLLEASMRCRTPQPSLTMLYDEKLPEDFLMKAAECTKLGSGYPAWVNNSNGTTFMMKQFADEGMTVEEARAFALGGCLETSPGCWKQLTLNGKTYSIAGGAGQSAGSGVHFIANPKILELVLMNGKDYRMNIQVFEPHNKPLDTYEEVIEVFKDYYKQAINVLERANNIELDIWRKFDTSIINSLLKPDCLDKGQHIGNMGYRYNATLNVETCGTVTMVNSFAALKKLVYDDKAFTIEEMKDAILNNFGFKDALEVGNYSMADQVKVDKTGKYDAIYKACLDAPKYGNNDLYADNILKNYEVWLSKVCEEAQSLYAKKMYPCQISVSTHGPQGAATLATPDGRLSGTTYSDGSVSAYAGTDKNGVYALFESATIWDQAVVQNSQMNLKLHPTTIKGQQGTKKLLDLTRSYLRKGGFHIQYNVVDSETLKDAQKNPDNYRQLMVRVAGFTQYWCELGKPIQDEVIARTEYEGV”, the protein production entry is “failed”.

Turning to “MSQSMYSYPAMTANVGDMAGYTGTTQSLGADIASERTAPSRACQGDLGMSHQDWQAQWNQAMEALARAYRRCRRALRQIGVLERPVGDSSDCGTIRVGSFRGRWLDPRHAGPATAADAGD”, the protein production entry is “failed”.

For the sequence “MSQSNHPGGKDAGSIPRVLISADRSSSGKTTISMGLMAALVSRGYKVQPFKVALDYIDPSYHTEITGRFCRNLDGYLMDEHGILDVYTHACETGGGADIAIIEGVRGLFEGFESLSDVGSTAQIAKILKCPVVFVINARSITRSAAALIGGYKNFDPDVEIAGVILNNIGGRRHAQKAKEAIEHYTGVPVLGIIPRDPSMQISMRHLGLMPALEGRRRFGDGGFENRLHGIEEIINKGIDVDRFLGIAESAKPLTALENSIFSPAVNENSQKPKIGVALDEAFNFYYRDNIDLLEIAGAEIVYFSPVNDPGLPEVDGLYIGGGYPELFAAELEANETMRKSIKEASAAGMPIYAECGGLMYLTEKISTGVPGKGTYHDASMPESTYSMVGALPGHTIMGQTRVVSYNIGTLARDCPIGKKGNSFKGHEFHHSEILEIPDDAEFAIALTRGTGIRGDRDGLIVNNTIGSYAHLHGVAYRELAGSLVEAARKFRDSRVSSLEHHHHHH”, the protein production result is on record as “not failed”.

For the sequence “MSQSPSPPDSPSASPDSPSASPMHAFLLCAGFGTRMRPVTAETPKSLVTVAGRPLLDHLLDELTAWSALTEIHVAVNHEDAPAFREWAAGHRADLETQGIGLHLHDDGVEAPDDQLGCVGDLRFLLDAVGLPADGALVSGGDSLYRFPLAPLLNAYDGTTNRVLALHEPDPERRAQSSVLQLDGPTVTAVHDDPTGTASTRICPSWLLLSAEGLGAIVPYLDDGGPPDTLGAFLDRLARTHSVQAHRLPQTGHLRLHCNTPDDLEHARKLLRKGPRHVLGPAPVRASLPEPAS”, the protein production result is listed as “failed”.

Take “MSQSSSPQQIPVVVLAGFLGSGKTTLLNHLLHRSGGSRIGAIVNDFGAIEIDAMAVAGALGDSTVSLGNGCLCCAVDAGELDLYLERLAHPSARVDVIVIEASGLAEPQELVRMVLASENARVVYGGLVEVVDAAEFDATRAKHPEVDRHLAMADLVVVNKIDRADDGERVLRAVRSLTDRAAVVPATYGRVDPELLFDCRPTGERIGQLSFDDLHEHRGEEDHHGHLHAAYDSVSFTSEAPMNPRRMMDFLDSRPEGLYRIKGYVDFGTADPRNRYAVHAVGRFLRFYPEPWAPAGPRLTQLVLIGSGIDTAALHKELDACTNDAPHADEHSMWGVLRYVQEQEQEQEQRQETAEAEQAG”: the protein production result is recorded as “failed”.

For the sequence “MSQVHRILNCRGTRIHAVADSPPDQQGPLVVLLHGFPESWYSWRHQIPALAGAGYRVVAIDQRGYGRSSKYRVQKAYRIKELVGDVVGVLDSYGAEQAFVVGHDWGAPVAWTFAWLHPDRCAGVVGISVPFAGRGVIGLPGSPFGERRPSDYHLELAGPGRVWYQDYFAVQDGIITEIEEDLRGWLLGLTYTVSGEGMMAATKAAVDAGVDLESMDPIDVIRAGPLCMAEGARLKDAFVYPETMPAWFTEADLDFYTGEFERSGFGGPLSFYHNIDNDWHDLADQQGKPLTPPALFIGGQYDVGTIWGAQAIERAHEVMPNYRGTHMIADVGHWIQQEAPEETNRLLLDFLGGLRP”, the protein production entry is on record as “not failed”.

On to “MSQVRQVGLLAAGCQPWNKDVCAANGDRFAYCATLAIYIYQLDHRYNEFRLHAIMAEHKKTITAISWCPHNPDLFASGSTDNLVIIWNVAEQNVIAKLDNIKETPACLSWCWNTGDAVAFVSQKGPLLIWTISGPDSGVSVHKEAHGFVSDICIFRWHTQKKGKVAFGHTDGSISIFQPDEDDPVTALEWDPLSTDYLLVANLHYGIRLLDSESLYCITTFSFPSAAVSVQCLAWVPSAPGMFITGDSQVGVLRIWNVSRTTPIDSFKLKKAGFHCLHVVNSPPKRKFSVQSSNKNHYMSSTSEAVPPPSLTRNQAFSLPPGHVVCCFLDGGVGLYDMGAKKWDFLRELGHVETIFDCKFKPDDPNLLATASFDGTIKVWDINTLTAVYTSPGNEGVIFALSWAPGDLNCIAGATSRNGAFIWDIQKGKMIQRFNEHGKNGIFYIAWSHKDSKRIATCSGDGFCIIRTLDGKLLHKYKHPAAVFGCDWSQNNKDMIATGCEDKHVRVFYVASSSNQPLKVFSGHTARVFHVKWSPLREGVLCSGSDDGSVRIWDYTQDACISILNGHTAPVRGLMWNTEIPYLLISGSWDYTIKVWDTRGGVCLDTVYDHGADVYGLTCHPSRPFTMASCSRDSTVRLWSLIPLITPLQINILADRPWEEIIGNTDNAIEQASPPLLCGKASKDIKQEVEKLTCNPRVKKLRLFSECLSSPGGSDNLWNLVAVIKGQDDSLLPQNYYKGMMHLKHLIKFRTSEAQELTTIKMSKFGGGIGAPTKENKLKEAAEIHLRLGQIQRYCELMVELGEVA”, for which the protein production entry is recorded as “failed”.

On to “MSRAALGIRSSWVGFVAAATTAMASTIAPVAYAQVAHHVPNDGCSAVEVAVVGGTTQANIHDDPHDVYSFGKGTNFAVNMTRRFHNVTAWQLPYYSSAGITASNNDAEQKEFPPYAVSKNRGVDVLDAHLSDQAVKCPDTQFVIAGFSQGADIAGDMAERISRGKTNPALTPERVLGVYLLADPGRSDLPMNPTQGQTTTGKSGPLTDNGAVLIETNLGLPGAGSVGIAGPRAAGAFSNLPGKVRSICSSGDPACAVHPKGLLASVGKWANDQNDFEHVPVESVRTMMLNGSFFISLAPHMNKIRGDLYASDPVALKQHFDDASMHPRLTQPERNTLHLVGAEIAGLMGHLKQGRDQVAVGSSDTGLSSGGPRDRLIALEKIVQQQTGLVELQLAVGLMIVHLSYTGDSREVSTVGAQRADDWIDSDMTQLISGYLNTLSVRAPYVTLGERHTFIQKMGWPIWWIVSSIWGQRNHAARGVWEFFGL”, for which the protein production result is “failed”.

The values above are taken from a protein production outcome set (Wang et al. 2014).
